Data taken from the domain aggregation screens of Martell et al. (2025).

Assay: soluble fraction after stress (log2 fold change); higher = more stays soluble; pooled small domains, quantitative proteomics
Settings: stress: pH 4
How it was run: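 High-throughput quantitative proteomics was run on pooled custom libraries of small protein domains following pH 4 stress. Fold changes are on a log2 scale; higher values mean more of a domain remained soluble. The fold change in soluble amount is taken as a measure of aggregation propensity.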

| Sequence | soluble fraction (log2) |
| --- | --- |
| HMFKEVPVPDVKGMTLEEAKLALEKEGFILGKTEEAESTEVAAGKIISQNLEAGKIAKQGTSVNLVVSKGK | -0.0392 |
| HMFKLPRTIGTFEDSDVVIGAGKFGPYIMHNKKFVSLPKSEDPLTIGLERAIELISAKREQEKQRH | 0.237 |
| HMFLPFFDNLRKAGVPVSLREFLGFLEGMKAGLATYDIDAFYFLARTTMVKDERNLDKFDRAFSATFKG | -0.935 |
| HMFNDGEIAIYTDPRGDAGETQIWKRGKGYYGQNDSFDFEAKDKKELEMKLKRWGYVLIAGSIDE | -0.0774 |
| HMFNGDPTTRESILASARAEIDQYGIIGLRLSAVAEKAQVSVPLIYKYFEDRDGLLAVVLGDW | -1.36 |
| HMFNTWLGEIRSNTGANVRSGPDASAAIVDARPNETVVRVIGQSGNWLQIGDKQFVAQSLVAP | -0.0317 |
| HMFPDLTGDELRIVDLLNTANDLQVNIITAKTNLPISRVTSLLFQLEMKGVVKPLAGGMYHLLG | -0.117 |
| HMFPELDEEEQKITKLLQAQNDLPANIIAVKTALNIGTTQAKLFSLEMKGVVKPYAGGFYHLL | 0.0183 |
| HMFPNLTNEEQQVMKVLAKTNDLQINMLSVQSNLPIARLTALLFSMEMKGVVKTLAGGVYHLL | 0.375 |
| HMFPNSFSEREKEVVDLLLQAKSNKQIAFSLGITNRTVEYHLGNIFAKLGVSSRSEAILTITNYKNQ | -1.27 |
| HMFPQVEVQLIYSYKSDRILNKMLKEFNVVILNQVFKDDILTSFHMNYSLVNQLITKIKSYPDISYKIIN | -0.89 |
| HMFPTLNEDEQTIVSALQKINDQPINTLSIHTALPIPRLTSLLFQLEIKGVIKQLAGGTYHVL | -0.147 |
| HMFQLSNEAKQQVLGELKRYESKQSAVLPALYIGQKDNKGHITPEVIRELSKVMDIPESQINEVFTFYTM | -0.402 |
| HMFQRLPFSFANRYKMVLEYQHPERPPVLYYVEPLKAAAILEVSRVIKSGFTPQAIVSDEFEKKLTEAYQR | 0.0565 |
| HMFRMTPQRMAILAEVQNAERHLTAAEIYERVRRKYPTIAYGTVYRTLHLLAKHGLIQEFPFGDNASLFDR | -0.0123 |
| HMFRPRIEPGAKGSYVLEVQKRLAKLGYEHAGFDGVYGPGTERAIMQLQRDKGLPVTGIVDMRTYEALGLF | ≥ 0.43 |
| HMFRSTLEELKHQISGFLKANQSQEFTAQNLADGLRMTSIAEYKRVVNAMDALVRDGELTFDAGKYQYNPN | 0.252 |
| HMFSMKDFGQRLRQLRKERGLTQGDLARLAKIDIMQVSRYERGLGLPSLETAIALARVLETSTDLLFLG | -0.0792 |
| HMFSPSDEDLELAHRQIRAFEEVEANGKSIAVVDGRIVESLHIVTARDTLEKAKAITALAEEM | -0.0013 |
| HMFSVVDKITLQEELKKLSKKEQLLIQLRYYDELNQEEIAKIFHVSQVQISRMEKKIIEKLKKQF | 0.273 |
| HMFTDEELEHIRSALIQAGIRLSKELGLQKMSVEKLTAAVGIAKGSFYMFFGSKEDFILEVAEYTGAQ | -0.679 |
| HMFTEEEMTKLRHELILAGIRLSRELGLQRMSVEKITSAVGIAKGSFYIFFDSKEDFILEIADHANRE | -0.828 |
| HMFTEEQMDWLRLIKDHIVASLSILPEDLELTPFDRKGGLLGFYDAFGDEYEKILQEMNEELVA | -0.43 |
| HMFTEIMAERNALIQAIQQNLPPQHIQSILSKKNKFRLEDLTNEELRDVWQWILNQRQAQQHQQQ | -0.373 |
| HMFTGELESRVFELNYVDGLVASAALAGVLTDKGSATPIASRAGGENDMLLVVDRIASYSQIEKIITQLD | -1.31 |
| HMFTKSNLEKLSNSELILKAIDSGNYSKIEFGGSEALNPDVPSYKKDLKNREELIEILSEMGM | -0.0908 |
| HMFVNADEIAKGLSPFNPSSVAIEAGRLMLKRIGELLSAGVSFSVETTLSTRSYINLIQQAQNQGYSVSL | ≥ 0.43 |
| HMFVVVPDLIGKTINQFEEDLSELNLKYVVSDSGNFNPEFKINAVLDQSPKANSKVKDGRKIYLTLNAS | -0.324 |

| Sequence | soluble fraction (log2) |
| --- | --- |
| HMFWRKIDFYGLNLSTYRNIINIGSDYNYIYLDLGNIYKILNPITGKIIEEQDLVMNIDNINWSS | -0.105 |
| HMFYNDLINFDVFRDSRKIGKIENINSRLPQPVFEIMYDSRIVLIPIHEDFIRKIDKVNNIIYLDIPDGLL | -1.69 |
| HMGAAFITSSKDNAINIRQSANTDSKVIETVTNGQILESNEKSGEWHKVTYYDNDIKKSFTGYVHEGQLK | -0.129 |
| HMGAAIEYGDRGNTVLQAQRLLIARGYMAGSADGIYGRQMEQAVKRFQKEQGLPESGVVDRRTLQVLIRSR | 0.04 |
| HMGAARRFEMSEGGSQKFWEVAVEGPALTVRFGKLGTAGTTQTKTLASAEAAAKEADKLVREKTKKGYAP | -0.596 |
| HMGAATQADIARVQELLNRLGYDAGSPDGLMGPRTRDAILEYQLTEGLETTGTVTRETLASLEARL | -0.939 |
| HMGAGFREAIPPALDGERIDRVVSLLAYVSRNRAAGALAAGSVSVDGEVVFQRSRRVREGEELVVTGFERE | -0.427 |
| HMGAITGLQSRVAFLKGQGTITDAEAKTAMAFLPDPTDSKEVKIAKIGQAREYIMSLIENRA | -0.0578 |
| HMGAIVTGTVVEIRSDVVIVNAGLKSEGVVPIEQFRNEAGELEVSVGDEVKVALDALEDGFGETRLS | -1.97 |
| HMGAIVTVPDLAGRPQPGAEAELRRSGLVPKVRTSYSLTGTRGTVISQTPPAGSRVREGAEVEVVVSRGLN | 0.0493 |
| HMGAKLTTAQGGTLKVLVKGKKTHTPTIELRDKDPDFPNAKVVQPDINKGNKQIAHGINGVL | 0.144 |
| HMGALAITPDFVGQTREEAERFLRDLDLSFDIGGKGDRILRQEPVAGQRMNLDQPMKLWVGSMNA | -0.313 |
| HMGANAVAAFTARVRTGPSTGYPVRISVPQGRQVRVISGPYGGWYRVSYQGLTGYTYGGLLRQG | -0.222 |
| HMGAPAISYSKFLEQVDRKNVASVTIYKDGRIDGVMTSGSRFATESPSDPGLVGDLLKAGVEIRAKPP | 0.144 |
| HMGAPVIYELTAESAAGQRIDKYLSGQLADLSRSYLQKLLKDGGVEVNKKPVKSNYKLSEGDQIRLEVPEA | -0.198 |
| HMGAQINSPISGTILKYLVKNGDKITKDQPLVNIESMKMENTIKSDKEGIVNNINFKIGDSVNTADTLLTL | 0.22 |
| HMGAQKITIPDFSNQEATQVYAELKNMGLEYTESRMNHPSIASGYVIKTEPTKGSEVKAGTTVTVYVSLG | -0.128 |
| HMGARHPLPYPFARAHGLLLEADGERSTLWASTNVSPAALSEVMRKYAVDVIEEEPPETLSQRIAAAYAA | -0.763 |
| HMGASFITSSKDNAINIRESATTDSKVIETIKNGEILESTEKSGDWHKVTYYNSEIKKSFTGYIHNSQLK | -0.151 |
| HMGASLVIVPGAGFLRVSASSQTRLDVYSITGMRVRSVDFEPGTTEIELPAGFYIAGGRKFFV | -0.124 |
| HMGAYITYEVKPGDTLWDIANKFPGVSADNIKTWNKVDELIKAGERLKINTQTITDYSPDKYPS | -0.575 |
| HMGDADDLSRELLQQGLSLKEAVADFERRYLQQAMQRHSSIASVSEALDVHFSTLWRKLVKYNLV | -0.621 |
| HMGDADDLTRIKGIGPKLSKTLNELGIYHFRQIAGWQSDEADWVDDYLSFKGRVMREQWIEQAQKFAS | -0.292 |
| HMGDAIPVPDVSGFSEDQAMNNLRKVGLRPKATYVADDNTAKGYVTGTSPAKNIEVAPDSEVIVYVSSGP | 0.241 |
| HMGDAPLITVDKRTIKVNGAKAQIQVYDTTGRLVKNVSPAGKLTLIEMAKPGIFIVHTQSMSFKVVL | 0.00664 |
| HMGDAVYSKVKDLVNTYNALAKQTGKSDLVSISQSRTWMVNDTKAHEVQWNKIGITIEDDQTLTI | -0.13 |
| HMGDLDLVTFGQRLRHLRRSRNMTLSELGERVGRAPSQLSLLENGKREPKLSLLTALAKALDVSVEEL | 0.178 |
